Test results taken from patent publication US20160038588A1, “Myostatin Antagonism in Human Subjects” (AMGEN INC., priority 2013, published 2016).

Tested on: CD1 nu/nu mice
Assay: In vivo anabolic activity in CD1 nu/nu mouse model
Conditions: 1× peptibody; 1, 3, 10 mg/kg s.c. twice or once weekly, 14 days, vs huFc control
Excerpt: In Vivo Anabolic Activity of Exemplary Peptibodies
The CD1 nu/nu mouse model (Charles River Laboratories, Massachusetts) was used to determine the in vivo efficacy of the peptibodies of the present invention which included the human Fc region (huFc). This model responded to the inhibitors of the present invention with a rapid anabolic response which was associated with increased dry muscle mass and an increase in myofibrillar proteins but was not associated with accumulation in body water content.
A group of 10 8 week old CD1 nu/nu mice were treated twice weekly or once weekly with dosages of 1 mg/kg, 3 mg/kg and 10 mg/kg (subcutaneous injection). The control group of 10 8 week old CD1 nu/nu mice received a twice weekly (subcutaneous) injection of huFc (vehicle) at 10 mg/kg. The animals were weighed every other day and lean body mass determined by NMR on day 0 and day 13. The animals are then scarified at day 14 and the size of the gastrocnemius muscle determined.
In another example, the 1× mTN8-19-32 peptibody was administered to CD1 nu/nu mice in a biweekly injection of 1 mg/kg, 3 mg/kg, 10 mg/kg, and 30 mg/kg compared with the huFc control (vehicle).
CD1 nu/nu male mice (10 animals per group) were treated with twice weekly injections of 1 mg/kg and 3 mg/kg of 1× mTN8-19-7 and 2× mTN8-19-7 for 35 days, while the control group (10 animals) received twice weekly injections of huFc (3 mg/kg).

Substance	total body weight
1× mTN8-19-21: 1× affinity-matured peptibody; peptide SEYQGLCTRWPWMCPPQGWK	increase in body weight compared with the control

Same assay, conditions: biweekly injection 1, 3, 10, 30 mg/kg vs huFc control

Substance	total body weight
1× mTN8-19-32: 1× affinity-matured peptibody; peptide VADHGHCTRWPWMCPPQGWG	increase in total body weight

Same assay, conditions: biweekly injection 1, 3, 10, 30 mg/kg; day 13 compared with day 0

Substance	lean body mass (NMR)
1× mTN8-19-32: 1× affinity-matured peptibody; peptide VADHGHCTRWPWMCPPQGWG	increase

Tested on: not listed separately
Assay: In vivo pharmacokinetics in CD1 nu/nu mice
Set-up: species or system mouse
Conditions: 10 mg/kg and 5 mg/kg, peptibodies without LE sequences
Method: In vivo pharmacokinetics experiments were performed using representative peptibodies without the LE sequences.

Substance	half-life
1× mTN8-19-7: 1× affinity-matured peptibody; peptide LADHGQCIRWPWMCPPEGWE	about 65 hours
1× mTN8-19-22: 1× affinity-matured peptibody; peptide TFSQGHCTRWPWMCPPQGWG	about 50.2 hours

Target: T1, myostatin (Homo sapiens, UniProt O14793)
T1 construct: To produce mature myostatin, the pooled promyostatin was enzymatically cleaved between the propeptide and mature myostatin C terminal; made in house
T1 sequence (O14793 267-375): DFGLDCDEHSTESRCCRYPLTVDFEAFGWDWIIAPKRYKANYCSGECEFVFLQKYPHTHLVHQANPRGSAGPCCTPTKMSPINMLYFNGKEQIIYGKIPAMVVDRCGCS
Assay: C2C12 pMARE-luc cell based myostatin activity assay
Conditions: not given
Excerpt: The antagonists including the binding agents described herein can be tested for their ability to bind myostatin and inhibit or block myostatin activity. Any number of assays or animal tests may be used to determine the ability of the agent to inhibit or block myostatin activity. Several assays used for characterizing the peptides and peptibodies of the present invention are described in the Examples below. One assay is the C2C12 pMARE-luc assay which makes use of a myostatin-responsive cell line (C2C12 myoblasts) transfected with a luciferase reporter vector containing myostatin/activin response elements (MARE). Exemplary peptibodies are assayed by pre-incubating a series of peptibody dilutions with myostatin, and then exposing the cells to the incubation mixture. The resulting luciferase activity is determined, and a titration curve is generated from the series of peptibody dilutions. The IC50 (the concentration of peptibody to achieve 50% inhibition of myostatin activity as measured by luciferase activity) was then determined. A second assay described below is a BIAcore® assay to determine the kinetic parameters ka (association rate constant), kd (dissociation rate constant), and KD (dissociation equilibrium constant) for the myostatin binding agents and other antagonists such as antibodies capable of binding myostatin and its receptor. Lower dissociation equilibrium constants (KD, expressed in nM) indicated a greater affinity of the peptibody for myostatin. […] These assays are described in Example 3.
C2C12 Cell Based Myostatin Activity Assay
A myostatin-responsive reporter cell line was generated by transfection of C2C12 myoblast cells (ATCC No: CRL-1772) with a pMARE-luc construct. The pMARE-luc construct was made by cloning twelve repeats of the CAGA sequence, representing the myostatin/activin response elements (Dennler et al. EMBO 17: 3091-3100 (1998)) into a pLuc-MCS reporter vector (Stratagene cat #219087) upstream of the TATA box. The myoblast C2C12 cells naturally express myostatin/activin receptors on its cell surface. When myostatin binds the cell receptors, the Smad pathway is activated, and phosphorylated Smad binds to the response element (Macias-Silva et al. Cell 87:1215 (1996)), resulting in the expression of the luciferase gene. Luciferase activity is then measured using a commercial luciferase reporter assay kit (cat # E4550, Promega, Madison, Wis.) according to manufacturer's protocol. A stable line of C2C12 cells that had been transfected with pMARE-luc (C2C12/pMARE clone #44) was used to measure myostatin activity according to the following procedure.
Equal numbers of the reporter cells (C2C12/pMARE clone #44) were plated into 96 well cultures. A first round screening using two dilutions of peptibodies was performed with the myostatin concentration fixed at 4 nM. Recombinant mature myostatin was preincubated for 2 hours at room temperature with peptibodies at 40 nM and 400 nM respectively. The reporter cell culture was treated with the myostatin with or without peptibodies for six hours. Myostatin activity was measured by determining the luciferase activity in the treated cultures. This assay was used to initially identify peptibody hits that inhibited the myostatin signaling activity in the reporter assay. Subsequently, a nine point titration curve was generated with the myostatin concentration fixed at 4 nM. The myostatin was preincubated with each of the following nine concentrations of peptibodies: […], 0.4 nM, 4 nM, 20 nM, 40 nM, 200 nM, 400 nM, 2 uM and 4 uM for two hours before adding the mixture to the reporter cell culture. The IC50 values were for a number of exemplary peptibodies are provided in Tables III and for affinity matured peptibodies, in Table VIII.

inhibition of myostatin activity in cell-based assay	Substance
inhibit myostatin activity	L2: peptibody; peptide MEMLDSLFELLKDMVPISKA

Same assay, conditions: affinity matured peptibodies; a range of values is given

Substance	IC50
mTN8-19-9: affinity-matured peptibody; peptide TQTHAQCTRWPWMCPPQWEG	18.8 to 23 nM
mTN8-19-13: affinity-matured peptibody; peptide MWQQGHCTRWPWMCPPQGWG	20 nM
mTN8-19-2: affinity-matured peptibody; peptide YPEQGLCTRWPWMCPPQTLA	7.51 to 34.4 nM
mTN8-19-12: affinity-matured peptibody; peptide SYWQGQCTRWPWMCPPQWRG	980 nM
mTN8-19-4: affinity-matured peptibody; peptide MITQGQCTRWPWMCPPQPSG	16.7 nM
mTN8-19-6: affinity-matured peptibody; peptide GVNQGQCTRWRWMCPPNGWE	17.3 nM
mTN8-19-11: affinity-matured peptibody; peptide IYPHDQCTRWPWMCPPQPYP	28.7 nM

Next, values leading:

IC50	Substance
1.67 to 2.93 nM	mTN8-19-24: affinity-matured peptibody; peptide VAEEWHCRRWPWMCPPQDWR
4.07 to 6.56 nM	mTN8-19-14: affinity-matured peptibody; peptide EFTQWHCTRWPWMCPPQRSQ
1.84 to 3.35 nM	1× mTN8-19-32: 1× affinity-matured peptibody; peptide VADHGHCTRWPWMCPPQGWG
2.77 to 3.6 nM	1× mTN8-19-21: 1× affinity-matured peptibody; peptide SEYQGLCTRWPWMCPPQGWK
4.65 nM	mTN8-19-16: affinity-matured peptibody; peptide YQTQGLCTRWPWMCPPQSQR
5.25 to 7.4 nM	mTN8-19-10: affinity-matured peptibody; peptide VVTQGHCTLWPWMCPPQRWR
1.93 to 3.26 nM	1× mTN8-19-22: 1× affinity-matured peptibody; peptide TFSQGHCTRWPWMCPPQGWG
3.5 to 7.74 nM	mTN8-19-5: affinity-matured peptibody; peptide AGAQEHCTRWPWMCAPNDWI
2.15 to 2.75 nM	1× mTN8-19-33: 1× affinity-matured peptibody; peptide PESQGHCTRWPWMCPPQGWG
6.36 nM	mTN8-19-29: affinity-matured peptibody; peptide TLVQGHCTRWPWMCPPQRWV
4.84 to 4.92 nM	mTN8-19-27: affinity-matured peptibody; peptide ADTQGHCTRWPWMCPPQHWF
6.58 nM	mTN8-19-23: affinity-matured peptibody; peptide PGAHDHCTRWPWMCPPQSRY
4.39 nM	mTN8-19-28: affinity-matured peptibody; peptide SGPQGHCTRWPWMCAPQGWF
1 to 4.4 nM	mTN8-19 con1: affinity-matured peptibody; peptide VATQGQCTRWPWMCPPQGWG
5.03 to 5.07 nM	mTN8-19-34: affinity-matured peptibody; peptide IPAHGHCTRWPWMCPPQRWR

Same assay, conditions: pMARE luc cell-based assay, myostatin 4 nM

IC50	Substance
~30 nM	TN12-34: peptibody; peptide AHWCEQGPWRYGNICMAY
~11 nM	Linear-20: peptibody; peptide YREMSMLEGLLDVLERLQHY

Tested on: mdx mice
Assay: Treatment of aged mdx mice (Duchenne muscular dystrophy model)
Assay type: in vivo, mouse
Conditions: 10 mg/kg s.c. every other day, three months, vs huFc
Method: Muscular dystrophy is one of those disorders. The mouse model for Duchenne's muscular dystrophy is the Duchenne mdx mouse (Jackson Laboratories, Bar Harbor, Me.). Aged (10 month old) mdx mice were injected with either the peptibody 1× mTN8-19-33 (n=8/group) or with the vehicle huFc protein (N=6/group) for a three month period of time. The dosing schedule was every other day, 10 mg/kg, by subcutaneous injection.

Substance	body weight	fat percentage of body weight	lean body mass to fat mass ratio (NMR)
1× mTN8-19-33: 1× affinity-matured peptibody; peptide PESQGHCTRWPWMCPPQGWG	Significant increases in body weight	decreased	significantly increased
